Measured values from article PMC6370916.
Positions count from the first letter of the chain named. Names may count otherwise.

T1: recombinant human SEMA3C Fc chimera, Q99985
T1 chain: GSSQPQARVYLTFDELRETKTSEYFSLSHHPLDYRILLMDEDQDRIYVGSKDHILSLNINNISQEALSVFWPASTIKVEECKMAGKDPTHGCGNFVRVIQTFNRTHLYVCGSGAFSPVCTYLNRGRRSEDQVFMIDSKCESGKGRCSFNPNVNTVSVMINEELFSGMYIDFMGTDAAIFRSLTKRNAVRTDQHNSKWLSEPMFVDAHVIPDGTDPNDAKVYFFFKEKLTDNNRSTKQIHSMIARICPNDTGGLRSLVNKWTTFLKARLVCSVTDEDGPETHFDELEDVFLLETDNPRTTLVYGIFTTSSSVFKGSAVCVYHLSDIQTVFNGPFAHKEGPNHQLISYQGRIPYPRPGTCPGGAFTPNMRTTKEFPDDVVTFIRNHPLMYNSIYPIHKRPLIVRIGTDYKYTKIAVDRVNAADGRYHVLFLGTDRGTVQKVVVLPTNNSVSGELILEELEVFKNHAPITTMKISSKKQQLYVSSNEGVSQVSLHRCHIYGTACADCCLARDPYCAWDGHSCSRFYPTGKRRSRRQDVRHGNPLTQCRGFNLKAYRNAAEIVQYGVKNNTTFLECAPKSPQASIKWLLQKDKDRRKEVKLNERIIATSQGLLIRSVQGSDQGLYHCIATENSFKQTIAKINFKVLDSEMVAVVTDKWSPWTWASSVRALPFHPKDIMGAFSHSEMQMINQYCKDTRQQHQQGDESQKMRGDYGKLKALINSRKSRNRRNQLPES

B1: human Neuropilin 2, wild type, O60462 A506V (protein)
chain: RGQPDPPCGGRLNSKDAGYITSPGYPQDYPSHQNCEWIVYAPEPNQKIVLNFNPHFEIEKHDCKYDFIEIRDGDSESADLLGKHCGNIAPPTIISSGSMLYIKFTSDYARQGAGFSLRYEIFKTGSEDCSKNFTSPNGTIESPGFPEKYPHNLDCTFTILAKPKMEIILQFLIFDLEHDPLQVGEGDCKYDWLDIWDGIPHVGPLIGKYCGTKTPSELRSSTGILSLTFHTDMAVAKDGFSARYYLVHQEPLENFQCNVPLGMESGRIANEQISASSTYSDGRWTPQQSRLHGDDNGWTPNLDSNKEYLQVDLRFLTMLTAIATQGAISRETQNGYYVKSYKLEVSTNGEDWMVYRHGKNHKVFQANNDATEVVLNKLHAPLLTRFVRIRPQTWHSGIALRLELFGCRVTDAPCSNMLGMLSGLIADSQISASSTQEYLWSPSAARLVSSRSGWFPRIPQAQPGEEWLQVDLGTPKTVKGVIIQGVRGGDSITAVEARAFVRKFKVSYSLNGKDWEYIQDPRTQQPKLFEGNMHYDTPDIRRFDPIPAQYVRVYPERWSPAGIGMRLEVLGCDWTDSKPTVETLGPTVKSEETTTPYPTEEEATECGENCSFEDDKDLQLPSGFNCNFDFLEEPCGWMYDHAKWLRTTWASSSSPNDRTFPDDRNFLRLQSDSQREGQYARLISPPVHLPRSPVCMEFQYQATGGRGVALQVVREASQESKLLWVIREDQGGEWKHGRIILPSYDMEYQIVFEGVIGKGRSGEIAIDDIRISTDVPLENCMEPISAFAGENFKVDIPEIHEREGYEDEIDDEYEVDWSNSSSATSGSGAPSTDKEKSWLYTLDPILITIIAMSSLGVLLGATCAGLLLYCTCSYSGLSSRSCTTLENYNFELYDGLKHKVKMNHQKCCSEA
B2: human Neuropilin 2, wild type, O60462 V573L (protein)
chain: B1 chain with V486A, V553L

Molecular target: T1, recombinant human SEMA3C Fc chimera, …
Experiment: Saturation receptor-ligand binding assay
Details: chain shown with the change, SEMA3C 0-10 nM, read-out O.D. 450 nm
[1] = NRP2 co-expressed with WT PLXNA1, parent: 0.63 nM
[2] = NRP2 co-expressed with WT PLXNA1, parent: 0.65
[3] = NRP2 co-expressed with WT PLXNA2, parent: 0.89 nM
[4] = NRP2 co-expressed with WT PLXNA2, parent: 0.60
[5] = NRP2 co-expressed with WT PLXNA3, parent: 0.93 nM
[6] = NRP2 co-expressed with WT PLXNA3, parent: 0.54
[7] = NRP2 co-expressed with WT PLXNA4, parent: 1.03 nM
[8] = NRP2 co-expressed with WT PLXNA4, parent: 0.65
[9] = cells expressing NRP2 alone (no PLXNA co-expressed), parent: 0.81 nM
[10] = cells expressing NRP2 alone (no PLXNA co-expressed), parent: 0.89

Binder | Kd [1] | other: Bmax [2] | Kd [3] | other: Bmax [4] | Kd [5] | other: Bmax [6] | Kd [7] | other: Bmax [8] | Kd [9] | other: Bmax [10]
B1 | 0.67 nM | 0.55 O.D. 450 nm | 1 nM | 0.52 O.D. 450 nm | 1.12 nM | 0.42 O.D. 450 nm | 1.25 nM | 0.55 O.D. 450 nm | 0.73 nM | 0.84 O.D. 450 nm
B2 | 0.68 nM | 0.66 O.D. 450 nm | 1.01 nM | 0.67 O.D. 450 nm | 1.18 nM | 0.52 O.D. 450 nm | 1.07 nM | 0.59 O.D. 450 nm | 0.83 nM | 0.93 O.D. 450 nm
